Measurements as given in publication PMC12441119 (Cell Discovery, 2025).
Blank lines part the entries; values can stand above or below the binder they belong to.

B5: STK4 (residues 1–487) K59R (enzyme, human, UniProt Q13043 1-487, looked up)
chain: METVQLRNPPRRQLKKLDEDSLTKQPEEVFDVLEKLGEGSYGSVYKAIHKETGQIVAIRQVPVESDLQEIIKEISIMQQCDSPHVVKYYGSYFKNTDLWIVMEYCGAGSVSDIIRLRNKTLTEDEIATILQSTLKGLEYLHFMRKIHRDIKAGNILLNTEGHAKLADFGVAGQLTDTMAKRNTVIGTPFWMAPEVIQEIGYNCVADIWSLGITAIEMAEGKPPYADIHPMRAIFMIPTNPPPTFRKPELWSDNFTDFVKQCLVKSPEQRATATQLLQHPFVRSAKGVSILRDLINEAMDVKLKRQESQQREVDQDDEENSEEDEMDSGTMVRAVGDEMGTVRVASTMTDGANTMIEHDDTLPSQLGTMVINAEDEEEEGTMKRRDETMQPAKPSFLEYFEQKEKENQINSFGKSVPGPLKNSSDWKIPQDGDYEFLKSWTVEDLQKRLLALDPMMEQEIEEIRQKYQSKRQPILDAIEAKKRRQQNF
notes: The tag could be cut by HRV 3C protease 'if desired'; also called kinase-dead full-length STK4; MST1; source: E. coli BL21 (DE3), purified (Ni-NTA, SEC)

Assays:
linear tetra-Ub (M1-4Ub) = biological target: T1, linear tetra-Ub (M1-4Ub) (UniProt P0CG48 1-76; P0CG48 1-76; P0CG48 1-76; P0CG48 1-76); experiment: SEC; each protein alone and the mixture at matched concentrations on Superdex 200 Increase 10/300 GL or Superdex 75 Increase 10/300 GL; a forward shift or increase of the peak read qualitatively; fractions on SDS-PAGE (Fig. 1c: 20 μM HOIP RING2-LDD, 30 μM STK4 KD, Superdex 75 Increase); conditions: both partners purified
T1 construct: ubiquitin, unit 1 of 4, units joined head to tail by peptide bonds (M1-linked); ubiquitin, unit 2 of 4; ubiquitin, unit 3 of 4; ubiquitin, unit 4 of 4; source: E. coli BL21 (DE3), purified

linear di-Ub (M1-2Ub) = biological target: T2, linear di-Ub (M1-2Ub) (UniProt P0CG48 1-76; P0CG48 1-76); experiment: as above; conditions: both partners purified
T2 construct: ubiquitin, unit 1 of 2, units joined head to tail by peptide bonds (M1-linked); ubiquitin, unit 2 of 2; source: E. coli BL21 (DE3), purified

[1] = biological target: B5; experiment: ITC; MicroCal PEAQ-ITC, 25 °C; 20 mM Tris-HCl pH 7.5, 100 mM NaCl, 1 mM DTT; ~50 μM in the cell, ~500 μM in the syringe; one-site binding model; conditions: both partners purified
[2] = biological target: the molecule itself; experiment: AUC; sedimentation velocity, 42,000 rpm, 20 °C, c(s) distribution (SEDFIT); mixtures of HOIP RING2-LDD with STK4 KD at molar ratios 1:1 or 1:5
UBE2L3 = biological target: T3, UBE2L3 (human, UniProt P68036 1-154); experiment: SEC; each protein alone and the mixture at matched concentrations on Superdex 200 Increase 10/300 GL or Superdex 75 Increase 10/300 GL; a forward shift or increase of the peak read qualitatively; fractions on SDS-PAGE (Fig. 1c: 20 μM HOIP RING2-LDD, 30 μM STK4 KD, Superdex 75 Increase); conditions: both partners purified
T3 construct: UBE2L3 (E2), human; source: E. coli, purified
T3 sequence (P68036 whole entry): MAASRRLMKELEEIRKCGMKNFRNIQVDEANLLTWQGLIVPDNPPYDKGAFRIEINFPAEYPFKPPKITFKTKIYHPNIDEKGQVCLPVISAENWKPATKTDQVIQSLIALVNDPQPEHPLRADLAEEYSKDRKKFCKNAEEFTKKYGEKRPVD

HOIP (residues 480–1072) = biological target: T4, HOIP (residues 480–1072) (UniProt Q96EP0 480-1072); experiment: as above; conditions: both partners purified
T4 construct: source: E. coli BL21 (DE3), purified (glutathione resin, SEC)
T4 sequence (looked up): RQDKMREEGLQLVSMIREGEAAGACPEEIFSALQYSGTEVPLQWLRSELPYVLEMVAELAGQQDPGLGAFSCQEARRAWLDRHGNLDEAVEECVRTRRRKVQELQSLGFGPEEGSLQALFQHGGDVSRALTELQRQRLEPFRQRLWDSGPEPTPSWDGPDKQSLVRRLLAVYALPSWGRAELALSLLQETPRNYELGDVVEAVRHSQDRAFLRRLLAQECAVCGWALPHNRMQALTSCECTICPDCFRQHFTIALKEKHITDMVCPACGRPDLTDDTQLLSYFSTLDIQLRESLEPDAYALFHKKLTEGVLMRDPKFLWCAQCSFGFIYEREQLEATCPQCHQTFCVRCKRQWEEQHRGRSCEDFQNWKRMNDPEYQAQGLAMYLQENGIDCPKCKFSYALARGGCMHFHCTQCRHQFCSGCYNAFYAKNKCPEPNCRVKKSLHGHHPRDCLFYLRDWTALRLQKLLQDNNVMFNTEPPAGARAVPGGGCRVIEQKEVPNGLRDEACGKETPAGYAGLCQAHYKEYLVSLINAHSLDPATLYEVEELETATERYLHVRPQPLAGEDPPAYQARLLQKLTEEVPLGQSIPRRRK

B3: STK4 (residues 11–326) K59R (domain or fragment, human, UniProt Q13043 11-326, looked up)
chain: RRQLKKLDEDSLTKQPEEVFDVLEKLGEGSYGSVYKAIHKETGQIVAIRQVPVESDLQEIIKEISIMQQCDSPHVVKYYGSYFKNTDLWIVMEYCGAGSVSDIIRLRNKTLTEDEIATILQSTLKGLEYLHFMRKIHRDIKAGNILLNTEGHAKLADFGVAGQLTDTMAKRNTVIGTPFWMAPEVIQEIGYNCVADIWSLGITAIEMAEGKPPYADIHPMRAIFMIPTNPPPTFRKPELWSDNFTDFVKQCLVKSPEQRATATQLLQHPFVRSAKGVSILRDLINEAMDVKLKRQESQQREVDQDDEENSEEDEMD
notes: Monomer-dimer equilibrium in solution; dimer in the crystal; also called STK4 KD; source: E. coli BL21 (DE3), purified (Ni-NTA, SEC)
binding result [2]: binds

Binder: B5
binding result (HOIP (residues 480–1072)): binds

Continued, values first:

binding result (linear tetra-Ub (M1-4Ub)): binds
binding result (linear di-Ub (M1-2Ub)): binds
B1: HOIP (residues 697–1072) S1066E (domain or fragment, UniProt Q96EP0 697-1072, looked up)
chain: QECAVCGWALPHNRMQALTSCECTICPDCFRQHFTIALKEKHITDMVCPACGRPDLTDDTQLLSYFSTLDIQLRESLEPDAYALFHKKLTEGVLMRDPKFLWCAQCSFGFIYEREQLEATCPQCHQTFCVRCKRQWEEQHRGRSCEDFQNWKRMNDPEYQAQGLAMYLQENGIDCPKCKFSYALARGGCMHFHCTQCRHQFCSGCYNAFYAKNKCPEPNCRVKKSLHGHHPRDCLFYLRDWTALRLQKLLQDNNVMFNTEPPAGARAVPGGGCRVIEQKEVPNGLRDEACGKETPAGYAGLCQAHYKEYLVSLINAHSLDPATLYEVEELETATERYLHVRPQPLAGEDPPAYQARLLQKLTEEVPLGQEIPRRRK
notes: also called phosphomimic S1066E mutant; source: E. coli BL21 (DE3), purified

Kd [1]: ~102 µM
B2: HOIP (residues 697–1072) (domain or fragment, UniProt Q96EP0 697-1072, looked up)
chain: QECAVCGWALPHNRMQALTSCECTICPDCFRQHFTIALKEKHITDMVCPACGRPDLTDDTQLLSYFSTLDIQLRESLEPDAYALFHKKLTEGVLMRDPKFLWCAQCSFGFIYEREQLEATCPQCHQTFCVRCKRQWEEQHRGRSCEDFQNWKRMNDPEYQAQGLAMYLQENGIDCPKCKFSYALARGGCMHFHCTQCRHQFCSGCYNAFYAKNKCPEPNCRVKKSLHGHHPRDCLFYLRDWTALRLQKLLQDNNVMFNTEPPAGARAVPGGGCRVIEQKEVPNGLRDEACGKETPAGYAGLCQAHYKEYLVSLINAHSLDPATLYEVEELETATERYLHVRPQPLAGEDPPAYQARLLQKLTEEVPLGQSIPRRRK
notes: also called RING1-IBR-RING2-LDD; HOIP RBR-LDD; source: E. coli BL21 (DE3), purified (glutathione resin, SEC)

binding result (UBE2L3): binds
B4: HOIP RING1 (residues 697–793) T731A (domain or fragment, UniProt Q96EP0 697-793, looked up)
chain: QECAVCGWALPHNRMQALTSCECTICPDCFRQHFAIALKEKHITDMVCPACGRPDLTDDTQLLSYFSTLDIQLRESLEPDAYALFHKKLTEGVLMRD
notes: source: E. coli BL21 (DE3), purified
